In general, Kd refers to the free concentration of one partner at which half of the binding sites on the other are occupied at equilibrium, for simple one-to-one binding. Higher therefore signals weaker binding.

Where no end group is shown, it is not given here. Me3 = trimethyl (trimethylated lysine)

Assay [1] deals with T1, MORF PHD1/2 fingers (aa 211-329) (human, UniProt Q8WYB5-3 211-329).
T1 sequence (looked up): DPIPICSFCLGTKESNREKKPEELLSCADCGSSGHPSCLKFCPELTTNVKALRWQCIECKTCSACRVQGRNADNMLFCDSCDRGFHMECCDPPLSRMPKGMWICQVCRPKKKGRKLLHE
Briefly: NMR titration.

Assay [2] concerns the target T1, MORF PHD1/2 fingers (aa 211-329). The experiment in a line: other fluorescence titration.
The target in assay [3] is MOZ PHD1/2 fingers (aa 207-318) (human, UniProt Q92794 207-318). Briefly: other fluorescence titration.
Chain of MOZ PHD1/2 fingers (aa 207-318) (Q92794 207-318): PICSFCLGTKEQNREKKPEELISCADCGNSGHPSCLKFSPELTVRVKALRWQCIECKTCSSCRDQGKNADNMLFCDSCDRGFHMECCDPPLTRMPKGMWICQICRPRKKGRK

The molecule ARTK(Me3)QTARKSTG [histone H3 peptide trimethylated at Lys4] returned a Kd in assay [1] of roughly 2000 µM.

Regarding ARTKQTARKSTG (peptide, UniProt P68431 2-13, looked up, acetyl-lysine at 9) [histone H3 peptide acetylated at Lys9, amino acids 1-12], in assay [1], the binding result is recorded as “binds”.

On to ARTK(Me3)QTARK(Ac)STG [histone H3 peptide trimethylated at Lys4 and acetylated at Lys9], for which the “fold stronger than H3K4me3” value in assay [1] was roughly 4 fold.

On to ARTKQTARKSTG (peptide, UniProt P68431 2-13, looked up) [unmodified histone H3 peptide, amino acids 1-12], for which the binding result in assay [1] was “binds”.

With ARTKQTARKSTG (acetyl-lysine at 9) [histone H3 peptide acetylated at Lys9 (length not stated for the experiment)], the Kd amounted to 1.4 µM in assay [2] and 1.5 µM in assay [3].

The values above are taken from PMC3502708 (Journal of molecular biology, 2012).
